Test system: mouse splenocytes
Experiment: IFN-γ production by ELISA after stimulating mouse splenocytes with IL-12 containing conditioned media
Type: cell-based
Details: summary, compared with commercial IL-12
Experimental: Functionality of mIL-12 was examined by incubating mouse splenocytes with mIL-12 and measuring INF-γ. About 2×10^6 mouse splenocytes were stimulated with either commercial recombinant mouse IL-12 (rIL-12) or the CM from mIL-12 retroviral vector transduced and stably expressing A375 cells for 48 hours. Following stimulation, the CM from each culture was collected and measured for IFN-γ production by ELISA (FIG. 5).
Next, CT26, murine colorectal carcinoma cell line was transduced with the mIL-12 retroviral vector and examined whether or not secreted mIL-12 can produce IFN-γ and activate inflammatory genes from immune cells. About 2×10^6 mouse splenocytes were stimulated with either commercial rIL-12 or the CM from mIL-12 expressing CT26 cells at the concentration of 2 ng/mL for 48 hours. Following stimulation, the supernatant and cells from each group were collected and analyzed for the production of IFN-γ via ELISA and the expression of inflammatory genes via qPCR. […] Some preliminary animal studies were performed by implanting 1.5×10^5 CT26 cells stably expressing luciferase gene or CT26 cells stably expressing luciferase and mIL-12 gene from the retroviral vector cells into the right shoulder flank. […] Bio-luminescence images of animals implanted with either CT26 expressing luciferase or luciferase and mIL-12 tumor cells are shown in FIG. 12. […]

B1: mIL-12: mouse IL-12 heterodimer of P40 and P35 secreted by cells transduced with the mIL-12 retroviral vector (protein, UniProt P43432 23-335; P43431 23-215, looked up)
Interleukin-12 subunit beta: MWELEKDVYVVEVDWTPDAPGETVNLTCDTPEEDDITWTSDQRHGVIGSGKTLTITVKEFLDAGQYTCHKGGETLSHSHLLLHKKENGIWSTEILKNFKNKTFLKCEAPNYSGRFTCSWLVQRNMDLKFNIKSSSSSPDSRAVTCGMASLSAEKVTLDQRDYEKYSVSCQEDVTCPTAEETLPIELALEARQQNKYENYSTSFFIRDIIKPDPPKNLQMKPLKNSQVEVSWEYPDSWSTPHSYFSLKFFVRIQRKKEKMKETEEGCNQKGAFLVEKTSTEVQCKGGNVCVQAQDRYYNSSCSKWACVPCRVRS
Interleukin-12 subunit alpha: RVIPVSGPARCLSQSRNLLKTTDDMVKTAREKLKHYSCTAEDIDHEDITRDQTSTLKTCLPLELHKNESCLATRETSSTTRGSCLPPQKTSLMMTLCLGSIYEDLKMYQTEFQAINAALQNHNHQQIILDKGMLVAIDELMQSLNHNGETLRQKPPVGEADPYRVKMKLCILLHAFSTRVVTINRVMGYLSSA
T-cell activation and IFN-γ production in vitro: as functionally effective as commercial IL-12
